Experimental data published in article PMC7610992 (Journal of molecular biology, 2006).

B2: RNase E (628-843) (domain or fragment, E. coli, UniProt P21513 628-843, looked up)
chain: ERTEGSDNREENRRNRRQAQQQTAETRESRQQAEVTEKARTADEQQAPRRERSRRRNDDKRQAQQEAKALNVEEQSVQETEQEERVRPVQPRRKQRQLNQKVRYEQSVAEEAVVAPVVEETVAAEPIVQEAPAPRTELVKVPLPVVAQTAPEQQEENNADNRDNGGMPRRSRRSPRHLRVSGQRRRRYRDERYPTQSPMPLTVACASPELASGKVW

Experiments:
RNase E (628-843) = molecular target: B2; experiment: SEC + cross-linking + native MS
[1] = molecular target: T1, RNA helicase B (RhlB), full-length helicase (E. coli, UniProt P0A8J8 1-421); experiment: limited proteolysis with native gel and mass spectrometry
T1 sequence (looked up): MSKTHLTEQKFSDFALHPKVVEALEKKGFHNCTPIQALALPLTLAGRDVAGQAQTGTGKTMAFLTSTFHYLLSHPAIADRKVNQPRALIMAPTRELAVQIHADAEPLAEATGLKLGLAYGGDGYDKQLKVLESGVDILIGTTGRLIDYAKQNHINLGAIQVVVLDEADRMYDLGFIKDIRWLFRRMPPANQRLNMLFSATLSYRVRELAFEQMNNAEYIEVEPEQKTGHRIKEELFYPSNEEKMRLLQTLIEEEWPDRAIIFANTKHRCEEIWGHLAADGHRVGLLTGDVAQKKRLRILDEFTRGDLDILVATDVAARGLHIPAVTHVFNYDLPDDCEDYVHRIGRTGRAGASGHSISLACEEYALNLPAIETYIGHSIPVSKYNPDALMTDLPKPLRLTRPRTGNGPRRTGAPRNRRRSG

B1: RhlB-CTD, carboxy-terminal domain of RhlB helicase (domain or fragment, E. coli)
chain: MRIKEELFYPSNEEKMRLLQTLIEEEWPDRAIIFANTKHRCEEIWGHLAADGHRVGLLTGDVAQKKRLRILDEFTRGDLDILVATDVAARGLHIPAVTHVFNYDLPDDCEDYVHRIGRTGRAGASGHSISLACEEYALNLPAIETYIGHSIPVSKYNPDALMTDLPKPLRLTRPRTGNGPRRTGAPRNRRRSG
- stoichiometry N (RNase E (628-843)): 1 RhlB-CTD per RNase E (628-843)

Binder: B2
- binding result [1]: binds
